The stoichiometry N is the number of molecules, sites or subunits per partner or assembly.

The target of assay [1] is full-length MNV-1 NS1-2, bacterial two-hybrid fusions (pBT-NS1-2full and pTRG-NS1-2full) (Murine norovirus (MNV-1)). Briefly: two-hybrid; BacterioMatch II bacterial two-hybrid; NS1-2 fused to λcI (pBT) and to the RNA polymerase α-subunit (pTRG); selective medium with 3 mM 3-AT.
Assay [2] has as its target truncated MNV-1 NS1-2 fragment (minus the transmembrane domain), recombinant from E. coli (Murine norovirus (MNV-1)). Briefly: SEC + other: sucrose gradient sedimentation; Stokes radius from the calibrated Superose12 column and sedimentation coefficient from 5-20% sucrose gradients (16 h, 130,000×g, 4°C) joined in the simplified Svedberg equation; monomer and dimer fractions of the size exclusion column. In general terms: In gel filtration, larger molecules generally elute earlier.

Assay [3] addresses truncated MNV-1 NS1-2, bacterial two-hybrid fusions (pBT-NS1-2trunc and pTRG-NS1-2trunc) (Murine norovirus (MNV-1)). Briefly: two-hybrid; BacterioMatch II bacterial two-hybrid; NS1-2 fused to λcI (pBT) and to the RNA polymerase α-subunit (pTRG); selective medium with 3 mM 3-AT.

In assay [1], “full-length MNV-1 NS1-2, bacterial two-hybrid fusions (pBT-NS1-2full and pTRG-NS1-2full) (natural protein)” gave a percent positive (transcriptional activation) of 26%. For the substance “truncated MNV-1 NS1-2 fragment (minus the transmembrane domain), recombinant from E. coli (domain or fragment)”, in assay [2], the stoichiometry N was 2. With “truncated MNV-1 NS1-2, bacterial two-hybrid fusions (pBT-NS1-2trunc and pTRG-NS1-2trunc) (domain or fragment)”, the percent positive (transcriptional activation) in assay [3] is 38%.

These data come from PMC3274520.
